The series can be described thus: soluble on expression in E. coli; label from the status in PepcDB or PDB records.
Take “SKRRRCKGKNMTKNLLVELGLEELPAYVVTPSEKQLGEKMAAFLGENRLSYESIQTFSTPRRLAVRVLGLADQQTDLTEDFKGPSKKIALDADGNFSKAAQGFVRGKGLTVDDIEFREVKGEEYVYVTKHEAGKSAKEVLAGIPEVLASLTFPVSMHWANNSFEYIRPVHTLIVLLGDEALELDFLGIKSGRVSRGHRFLGHEVEITNADSYEEDLRTVYVIANSKERENMIREQIKAIEAEQGVQVQIEEGLLNEVLNLVEYPTTFMGGFDTKYLDVPEDVLVTSMETHQRYFVVRDLDGRLKPNFISVRNGNAEHLENVVRGNEKVLVARLEDGEFFWREDQKLKIEDLVAKLANVTFHEKIGSLSEHMARAGVIAASLAEKAGLTAEEKAAVARAAEIYKFDLLTGMVGEFDELQGIMGEKYALLAGEDEAVATAIREHYLPDSADGALPETKVGAILALADKLDTLLSFFSVGLIPSGSNDPYALRRATQGIVRILDAFGWHIPMDELIDSLYGLSFDSLSYDNQAEVIRFIKARVDKMMGSTPKDIKEAVLSGSNFV”: the “soluble on expression in E. coli” value is “not soluble”. With “MGSDKIHHHHHHMGGNSLSKELYDWLGYSSETATASAFVQQRDKIRPEALKLLFHEFTRLTVSENSLQDYRLLAVDGSDLRLPSNSKDGFSSIRNSEDSKNYNLVHLDAMYDLMGKVYVDASVQSKKGMNEHKALVSMVDQSEINGNVIAIMDRGYESFNNIAHFQEKSWYYIIRAKESYGIISRLSLPDYPEYDEEIMLTLTRRQTKETLPLLKAYPHRYRWIQPHTTFDFIKPKDSKFYDLHFRAVRFAIADGVYETVYTNLNAEDFPPEKLKQLYNLRWGIETSFKELKYAVGLASLHSKKKDFILQEIFARLILYNYSSIIMHHISISEDLRVNFPVALNICRQFLRELIPAVQVLKLIGKHLSPIRPGRQFPRHQNPISAVGFQYRII”, the “soluble on expression in E. coli” value is given as “not soluble”. In the case of “MAQLYYKYGTMNSGKTIEILKVAHNYEEQGKPVVIMTSALDTRDGFGIVSSRIGMRREAIPISNDMDIFTFIAQLEEKPYCVLIDESQFLSKQNVYDLARVVDELNVPVMAFGLKNDFQNNLFEGSKHLLLLADKIDEIKTICQYCSKKATMVLRTENGKPVYEGDQIQIGGNETYIPVCRKHYFNPDI”, the “soluble on expression in E. coli” value is given as “not soluble”.

Turning to “MPRARCKRCLRPTGYCLCALIPQIESRTRVLILQHPDEVSHALNTARLAALGLVNAQLCVGEVFDDLHTLLNPPGYQARLLFPGDAAETLTAYAPDATPMLLVVPDGTWRKARKLLHLNPLLAALPRVTLGSVPASRYRLRKAPGPEALSTLEAIVHTLQTLEAPNAFEALLKPFDALIDGQIQAMGNDTYQRNHGNQRLEHHHHHH”, the “soluble on expression in E. coli” value is reported as “not soluble”. For “MLTGCSRRELLDDYPVSGVDIKLDWNGVTDKLPEGVRVIFYPKSAEGRKIDTYLSVRGGKVKVPPGRYSVVAYNYDTETVQIRGEEAYETIEAFTGYCNGLGIAGTEKMVWGPDPLYVVQIDDLHIANSEEELLLDWKPKLVVKTYFFKIKVEGLEYVSSIVGSVEGMAGCYCLGRCCGMMCDAPIYFEAQGRSGEVTGSFTAFGMPEAAISRAGDKIKLTLAFIKVDKTVQKAEIDITEVVTNSESGGSGGGNVDEPPTEIELPLDEKVKVEKPTTNPDGGGGGIGGDVGDWGDEDEVVLPVE”, the “soluble on expression in E. coli” value is reported as “not soluble”.

In the case of “MAAFSVHILGCGSALPTTHHHPSSQVIDLRDKLYMIDCGEGVQRQFRHEKLHFGRLIHIFISHLHGDHCFGLPGFISTLGLLGRTGTLHVHGPEGIERFLSPILEQFCHRMPYQVEIHTIDASRHALVHEDKSVKVYSIPLSHRIPAVGYLFEEKCRARHLNKAAAEFYNIPLAEYPLIIEGSDYTTPDGRIIPNRHLTTPGTPPRRYAYCSDTEFCPSIVPIIQGVDLLYHEATFMEEDRARAKETFHSTAKEAAEIARQAGAKRLLIGHYSGRYKDVQGLLEEAQSVFKPTIAANERMRIDL”, the “soluble on expression in E. coli” value is recorded as “not soluble”. Consider “MAHHHHHHMDSGTKREFGRNVTNVDDFKGAKLTPSKIHHQKFEGSDKRHGVRLADEGKWCIHKRSRVEPVAAGPSRERSVEETKSTTTCCSLPLPSQETNLCSIRGDSNTCSSDDSSIERYFDESCEAIEAPTAPAPRPPSPTWNNALRTVSGTAAAVLQDLKNAASLQTDQSSSSEVLPSPPVIPLIL”, for which the “soluble on expression in E. coli” value is given as “not soluble”.

Take “GPGSMMVLDIQLFRDETGANIIRESQRRRFADPDIVDAIIEADKKWRRTQFLTEASKKLINICSKAVGAKKKAKEADGDTSEIPPQVKEAYENGTLKGEQVEQLCVLQLKQLSKDLSDQVAGLAKEAQQLEEERDKLMLNVGNILHESVPIAQDEETGNTVVRTFGNTTKRAKLNHVSIMERLGMMDTSKAVTSMAGGRSYVLKGGLVQLQVALVSYSLDFLVKRGYTPFYPPFFLNRDVMGEVAQLSQFDEELYQVSGDGDKKYLIATSEMPIAAYHRGRWFTELKEPLKYAGMSTCFRKEAGAHGRDTLGIFRVHQFDKIEQFVVCSPRQEESWRHLEDMITTSEEFNKSLGLPYRVVNICSGALNNAAAKKYDLEAWFPASGAFRELVSCSNCTDYQSQSVNCRYGPNLRGTAAQNVKEYCHMLNGTLCAITRTMCCICENYQTEEGVVIPDVLRPYMMGIEMIRFENNAQAEGTTPDKGE”: the “soluble on expression in E. coli” value was “soluble”.

In the case of “MNTKCLREKIEKIKPHLLKTASDTLQGYVFGCMIGVFSSSEKPSLRHVHESGKSFAKVSMIYSTTESALQLYGSKNAPLNSLISGAVAGGLGVNDRSKKSILTGAASFGLYTGMSNIFSVQGQK”, the “soluble on expression in E. coli” value was “not soluble”. The entry for “MMNTNTTNNTVLLFTFNNIQGRGLQTAIEQNLEKPVLLTQGADVNLPSTRDEHYVAIVDSSLPELPEVKQTLSELEHVDATVLVNAEPNLRIESLLTWSNLKGLFYFEDDFDKVMMGLKGILNGENWLSRDILN” is “not soluble”; for “MGSDKIHHHHHHMKEGKANILIIDDISSNIFALENLLMTENRTFFKATSGDEGLKLALSKPVDLIILDVQMPEMDGFEVANMLKSNKRTKDIPILFASAELKEQKNMLKGLEEGAIDYLFKPLDPEITKAKVNMLIRLELQRKEMVEINSALEKSAILINNCLDIICTIDAETFKFEAFNVAMTNVLGYSSEEITSQSLLFFLQESDREFIKNLKKSDSNTGSFEIQIICKDSSIKWLQWNIVVKGGKWFSNARDITERKKKDDEIIRLNQDLHENIQQLENANKELESFSYSVSHDLRAPLRSINNYAQMLEDAFAAQMDEKSTRLLGNIKRNAFRMDTLIDDLLAFSRLGRKPVQKQSINMNDLVQHVYADMQGTFKGEFVLPALPDIDADYNLLKQVVVNLLSNAIKYSGKIEEPRIEVGYTKNPNAVVYYIKDNGAGFDMEYSDKLFGVFQRLHSTKEFEGTGVGLAIVKRIVEKHGGTIWAEAKVGEGATFYFSLPAPV” it is “not soluble”; for “MGSDKIHHHHHHMDIRHLRYFVSIVDNDFNLSRASLNLYVSQPALSMMISDFENKEGVQLFKRAQGKIVGLTYVGENYYRDAKEVIKKYNEMHSNLHKSIEQIKGHISIGIPPLILSVVFSEVMPKLILNNPEINFTIKELGAYLLKSDLLLENIDFAVLLNPERISKNIIESYEIHRSELSLFLSPKHHLSAKENITWRDLHGEKIVIFDQTFMIHHQLVESFERHNVYPNIVLKSSSWDFLLYSVKINESLLTILPLPMYEQYKSTEFICRRMEEAIPWSVTLCRLKKNCYTNVEEYIFDSLLKAFKP” it is “not soluble”. As to “MSLNNDDSPALTLDEYKQAQAIVILGGGSYQTKELYAETASGAPQLERLRYAAFLQKETGLPILTTGYSLIGISEGDLMAKELNQFFNVPTQWIENKARNTEENASFTKNILIKDHIQKIILVTNQWHMKRAKYLFEKQGFDVLPAAAASYGSKGNLSAKSFIPDLGALNSNMVLLKEWIGYWKAHYVEEGHHHHHH”, the “soluble on expression in E. coli” value was “not soluble”. “GSKAPPTFKVSLMDQSVREGQDVIMSIRVQGEPKPVVSWLRNRQPVRPDQRRFAEEAEGGLCRLRILAAERGDAGFYTCKAVNEYGARQCEARLEVRGE”: the “soluble on expression in E. coli” value is “soluble”. The same measure for “MSEKRVQPLARDAMAYVLAGGRGSRLKELTDRRAKPAVYFGGKARIIDFALSNALNSGIRRIGVATQYKAHSLIRHLQRGWDFFRPERNESFDILPASQRVSETQWYEGTADAVYQNIDIIEPYAPEYMVILAGDHIYKMDYEYMLQQHVDSGADVTIGCLEVPRMEATGFGVMHVNEKDEIIDFIEKPADPPGIPGNEGFALASMGIYVFHTKFLMEAVRRDAADPTSSRDFGKDIIPYIVEHGKAVAHRFADSCVRSDFEHEPYWRDVGTIDAYWQANIDLTDVVPDLDIYDKSWPIWTYAEITPPAKFVHDDEDRRGSAVSSVVSGDCIISGAALNRSLLFTGVRANSYSRLENAVVLPSVKIGRHAQLSNVVIDHGVVIPEGLIVGEDPELDAKRFRRTESGICLITQSMIDKLDL”: “soluble”; for “MSLLKVREMEREDVERVYEINRESFTTDAWSRFSFEKDFENKFSRRFVLEEDGKVVGYVIFWVVKEEATIMTFAIAPGYRGKGYGEKLLREAISRLGDKVKRVVLDVRKSNLRAINLYKKLGFKVVTERKGYYSDGENALLMELKISRPSEAELSREGHHHHHH”: “soluble”; for “MSTFSFIIVNNEQVRIHDIQGKSHMSPYNGKKVNNVEGVVTALDKNGFYIEDNQPDNDPATSEGMYVYKKDANVAVGDLIQVDGVVEEYVGPGYAERFETDLTTTEIKASRVVVIAKDQSLPAPIVLGENGVKIPDQIIDNDAFGLFDPNEDAIDFYESIEGMRVTMPTPKVIAPQKNGNLYVTVKNGGDKIVTQYGTPLLDENQLNPERLSVKVPRDYVAKVGDTFTGDITGVVGYDYGSFRISPITELPAVVDGGFKQVGANIQPRLDKLTVATYNIENFSANKKETTDEKVKALAYSIKYNLKMPDIIGVEEMQDNNGSINDLEHHHHHH”: “not soluble”. Regarding “SLENVMRSLGFGFACKKGLKPDSPNQDDFAALCCSAFRLFGVFDGHGPSGHDVSGYVHRMLFALLLTDESLNRNPQLALRNAFVAPSKLRKSALLQVVCLPLFRPQPFTNVGGYDEAKAVRFVLFFSGGELKRLECDIPYRVFLKGRLYPGLAMSRALGDAIASHAGVSCEPDLSTVELDRSCLFVIIASDGVWEFISNQEAVNIVNEAMGSERKVRAKAAAERLALEAFKRWVEEEGNVVDDVFPVSPGGSHALPLLTTDPFIAKMKFLTNILLVLSCVLVLAGTVQGQKME”, the “soluble on expression in E. coli” value was “not soluble”. As for “MGSDKIHHHHHHMSNTAQLITPSPIGLIADITELFEKTFAHFSRTLKVNADDIPEETMSFHTWSSIDNFPTLIQKYRDEYYGDNDLKPNDKALYSLWSQWYFGLIIPPMMLLLIEYPQTIDTHHKNFKVLFHHSGRPEVVYYQLKWQSQDPGTLLERYYLLLNHHVIPIAEKIESYQGINGRLLWNNIGYLMFWYLGEFKGRLGDDLYQSIINGLFMELSLPNGQDNPLYRTVMLRNGTLQRRSCCQRNKLPGVRSCHDCPLEKPPLNLIS”, the “soluble on expression in E. coli” value is listed as “not soluble”. “MGSDKIHHHHHHMTQCPLVSISCLTYNHAPYLRQCLDGFVMQITSFPIEILIYDDASGDGTQNIIEEYQKKYPDIIKPIYQTENQYSKGVKVGFVYNYSRAKGEYIAFCEGDDYWTDPYKLQKQIDFLECYSDYVICSHRYRICLKEEKVMNDEIKPIGDLSDGMSFDLSFLIRGGWLFQPLSVVYRKSALDLDTYSKYAIYIDVALFYAILKNGKGYCMPDVMGVYRIHEKGVWSGLDLNHQRIFSLKAREAIYDVEKTDEAAMFILSQFSRPMGRFLVVKECSMFMRITKILISHFGLRFVLRMWFDRLFLNKKLCVNEFYQIKDFCKRKKNG”: the “soluble on expression in E. coli” value is listed as “not soluble”. On to “MGHHHHHHSHGTRAFGARRNTIDSTSSFSQFRNLSHRSLSIGRASGTQGSLDTGSDLGDFMDYDPNLLDDPQWPCGKHKRVLIFPSYMTTVIDYVKPSDLKKDMNETFKEKFPHIKLTLSKIRSLKREMRKLAQEDCGLEEPTVAMAFVYFEKLALKGKLNKQNRKLCAGACVLLAAKIGSDLKKHEVKHLIDKLEEKFRLNRRELIAFEFPVLVALEFALHLPEHEVMPHYRRLVQSS”, for which the “soluble on expression in E. coli” value was “soluble”.

Values taken from the DeepSol protein solubility set.
